Reference: publication PMC4072508, “Genome-Wide Prediction and Validation of Peptides That Bind Human Prosurvival Bcl-2 Proteins” (PLoS Computational Biology, 2014)

T1: Mcl-1, Q07820
T1 chain: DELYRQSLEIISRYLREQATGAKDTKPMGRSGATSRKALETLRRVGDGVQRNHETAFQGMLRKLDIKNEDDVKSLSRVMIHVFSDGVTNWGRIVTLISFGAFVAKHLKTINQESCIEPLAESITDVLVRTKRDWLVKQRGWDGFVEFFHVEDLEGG

B1: HEATR7B2 (peptide)
chain: ERMKGTFCIALEKFSKAIYKYVNHWR
B2: BCL2 (peptide)
chain: SPVPPVVHLTLRQAGDDFSRRYRRDF
B3: PMPCA (peptide)
chain: AKYLSGIAHFLEKLAFSSTARFDSKD
B4: CHD2 (peptide)
chain: PFNKEELTAILKFGAEDLFKELEGEE
B5: STOML1 (peptide)
chain: ADLRALLCRELRPLGAYMSGRLKVKG
B6: RSC1A1 (peptide)
chain: SSEEITVAGNLEKSAERSTQGLKFHL
B7: STX10 (peptide)
chain: LEMVSGSIQVLKHMSGRVGEELDEQG
B8: NAT10 (peptide)
chain: EPTMKTLSDDLDEAAKEFQEKHKKEV
B9: BCL2L11 (peptide)
chain: MRPEIWIAQELRRIGDEFNAYYARRV
B10: GCN1L1 (peptide)
chain: EEVFQSLSKILDVASLEVLNEVNRRS
B11: SI (peptide)
chain: QISTRLPSDYIYGIGEQVHKRFRHDL
B12: PEX26 (peptide)
chain: VPARAPAVDLLEEAADLLVVHLDFRA
B13: MED17 (peptide)
chain: KKSLAGAAQILLKGAERLTKSVTENQ
B14: MYH10 (peptide)
chain: DPLNDNVATLLHQSSDRFVAELWKDV
B15: ARHGAP4 (peptide)
chain: AEVELEYSRGLEKLAERFSSRGGRLG
B16: FRYL (peptide)
chain: LFKAADSSRSIYEVAMQLLQILEPKM
B17: SLITRK6 (peptide)
chain: QLQTLPYVGFLEHIGRILDLQLEDNK
B18: SRGAP3 (peptide)
chain: AEIELEYSRSLEKLAERFSSKIRSSR
B19: GRIK4 (peptide)
chain: DRYEGFCVDMLKELAEILRFNYKIRL
B20: APOL4 (peptide)
chain: KGAKSESAESLRQWAQELEENLNELT
B21: RAD51L3 (peptide)
chain: KTVVDLVSADLEEVAQKCGLSYKAEA
B22: PCNA (peptide)
chain: SGEFARICRDDSHIGDAVVISCAKDG
B23: KIAA1383 (peptide)
chain: RTGDIALAYRLTDLGSRLLSQLERPL
B24: LRRN1 (peptide)
chain: VMGSMFAVISLASIAVYFAKRFKRKN
B25: PGLS (peptide)
chain: QPHTGKLCWFLDEAAARLLTVPFEKH
B26: MACF1 (peptide)
chain: LGKRTGTVQVLKRSGRELIENSRDDT
B27: ZBED3 (peptide)
chain: AAPEGDWARLLEQMGALAVRGSRRER
B28: NTRK2 (peptide)
chain: QDKILVAVKTLKDASDNARKDFHREA
B29: CHD1 (peptide)
chain: PFNKEELSAILKFGAEELFKEPEGEE
B30: KIF5B (peptide)
chain: KRAAEMMASLLKDLAEIGIAVGNNDV
B31: LPXN (peptide)
chain: HPEHFVCAFCLTQLSKGIFREQNDKT
B32: PCDHB8 (peptide)
chain: TGVNGEISYSLFQASDEISKTFKVDF
B33: SNTG2 (peptide)
chain: NATHEEVVHLLRNALDEVTITVEYLR
B34: DFFB (peptide)
chain: PQRQRLLADLLHNVSQNIAAETRAED
B35: PMAIP1 (peptide)
chain: AELEVECATQLRRFGDKLNFRQKLLN
B36: BTRC (peptide)
chain: DFITALPARGLDHIAENILSYLDAKS
B37: TXNDC11 (peptide)
chain: TRELQELARKLQELLDASENLLTENT
B38: WNT9B (peptide)
chain: CRREPGLAETLRDAAHLGLLECQFQF
B39: FIGNL2 (peptide)
chain: DISALTASNLLKRYAEKYSGVLDSPY
B40: KLC1 (peptide)
chain: GKDHPAVAATLNNLAVLYGKRGKYKE
B41: ZRANB1 (peptide)
chain: SVLRKALHDSLHDCSHWFYTRWKDWE
B42: XXXX (peptide)
chain: EEITSDAAYVIQDLATLFEELQREKK
B43: C1orf125 (peptide)
chain: SKVRERYVQMLDQIARQMIDFYKDLV
B44: STX6 (peptide)
chain: LELVSGSIGVLKNMSQRIGGELEEQA
B45: BAD (peptide)
chain: LWAAQRYGRELRRMSDEFVDSFKKGL
B46: ACCN3 (peptide)
chain: AAVVLSVATFLYQVAERVRYYREFHH
B47: PGS1 (peptide)
chain: LPGRPGLAALLGRLSDRLGRNRDRQR
B48: CCDC24 (peptide)
chain: IIKDQLNVSNIDQVARHLRGLLEEEC
B49: DLG1 (peptide)
chain: DVTHSKAVEALKEAGSIVRLYVKRRK
B50: BAZ2B (peptide)
chain: FSDCLMVVQFLRNFGKVLGFDVNIDV
B51: WWC1 (peptide)
chain: PASTDAVSALLEQTAVELEKRQEGRS
B52: SYNGAP1 (peptide)
chain: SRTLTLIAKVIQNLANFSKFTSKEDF
B53: BARD1 (peptide)
chain: PKPDSDVTQTINTVAYHARPDSDQRF
B54: CCT3 (peptide)
chain: CKDPKACTILLRGASKEILSEVERNL

Biological target: T1, Mcl-1, Q07820
Experiment: peptide SPOT array, c-Myc-tagged receptor at 1 uM or 100 nM, anti-c-Myc-Cy3

Going from B1 to B2, the SPOT signal as a fraction of Bim BH3's signal on the same receptor and array falls from 0.37 to 0.26.

Compared with B3, B4 is lower in SPOT signal as a fraction of Bim BH3's signal on the same receptor and array: 0.06 for the first, 0.01 for the second.

Compared with B5, B6 is lower in SPOT signal as a fraction of Bim BH3's signal on the same receptor and array: 0.37 for the first, 0.01 for the second.

Going from B7 to B8, the SPOT signal as a fraction of Bim BH3's signal on the same receptor and array falls from 0.02 to 0.01.

Going from B9 to B10, the SPOT signal as a fraction of Bim BH3's signal on the same receptor and array falls from 1 to 0.14.

First: B11
Second: B12
The SPOT signal as a fraction of Bim BH3's signal on the same receptor and array of the first is higher: 0.12 for the first, 0.02 for the second.

Compared with B13, B14 is lower in SPOT signal as a fraction of Bim BH3's signal on the same receptor and array: 0.03 for the first, 0.02 for the second.

B15 and B16 are the same in SPOT signal as a fraction of Bim BH3's signal on the same receptor and array: 0.02 for the first, 0.02 for the second.

Compared with B17, B18 is higher in SPOT signal as a fraction of Bim BH3's signal on the same receptor and array: 0.02 for the first, 0.07 for the second.

Going from B19 to B20, the SPOT signal as a fraction of Bim BH3's signal on the same receptor and array falls from 0.03 to 0.01.

B21 and B22 are the same in SPOT signal as a fraction of Bim BH3's signal on the same receptor and array: 0.01 for the first, 0.01 for the second.

Compared with B23, B24 is higher in SPOT signal as a fraction of Bim BH3's signal on the same receptor and array: 0.03 for the first, 0.13 for the second.

Compared with B25, B26 is higher in SPOT signal as a fraction of Bim BH3's signal on the same receptor and array: 0.02 for the first, 0.05 for the second.

Going from B27 to B28, the SPOT signal as a fraction of Bim BH3's signal on the same receptor and array falls from 0.11 to 0.02.

B29 and B30 are the same in SPOT signal as a fraction of Bim BH3's signal on the same receptor and array: 0.02 for the first, 0.02 for the second.

First: B31
Second: B32
The SPOT signal as a fraction of Bim BH3's signal on the same receptor and array of the first is higher: 0.03 for the first, 0.02 for the second.

First: B33
Second: B34
The SPOT signal as a fraction of Bim BH3's signal on the same receptor and array of the first is lower: 0.01 for the first, 0.02 for the second.

Compared with B35, B36 is lower in SPOT signal as a fraction of Bim BH3's signal on the same receptor and array: 0.85 for the first, 0.02 for the second.

First: B37
Second: B38
The SPOT signal as a fraction of Bim BH3's signal on the same receptor and array of the first is lower: 0.01 for the first, 0.02 for the second.

Compared with B39, B40 is higher in SPOT signal as a fraction of Bim BH3's signal on the same receptor and array: 0.03 for the first, 0.22 for the second.

First: B41
Second: B42
The SPOT signal as a fraction of Bim BH3's signal on the same receptor and array of the first is higher: 0.04 for the first, 0.02 for the second.

Compared with B43, B44 is lower in SPOT signal as a fraction of Bim BH3's signal on the same receptor and array: 0.03 for the first, 0.02 for the second.

Compared with B45, B46 is lower in SPOT signal as a fraction of Bim BH3's signal on the same receptor and array: 0.53 for the first, 0.03 for the second.

Compared with B47, B48 is lower in SPOT signal as a fraction of Bim BH3's signal on the same receptor and array: 0.24 for the first, 0.02 for the second.

Going from B49 to B50, the SPOT signal as a fraction of Bim BH3's signal on the same receptor and array falls from 0.13 to 0.02.

First: B51
Second: B52
The SPOT signal as a fraction of Bim BH3's signal on the same receptor and array of the first is lower: 0.01 for the first, 0.08 for the second.

Compared with B53, B54 is higher in SPOT signal as a fraction of Bim BH3's signal on the same receptor and array: 0.01 for the first, 0.02 for the second.
